Results as given in publication doi:10.1101/2025.05.23.655777v1.

How the values were obtained:
Assay in all cases: purified protein
purified protein [1] = substrate: N[C@@H](CS)C(=O)O; details: fixed 2-oxoglutarate (6 mM), HEPES pH 8.0, 50 µM PLP, 30 °C
purified protein [2] = substrate: N[C@@H](CC(=O)O)C(=O)O; details: fixed 2-oxoglutarate (6 mM), HEPES pH 8.0, 50 µM PLP, 30 °C
purified protein [3] = substrate: O=C(O)CCC(=O)C(=O)O; details: HEPES pH 8.0, 50 µM PLP, 30 °C
purified protein [4] = substrate: C[C@H](N)C(=O)O; details: fixed 2-oxoglutarate (6 mM), HEPES pH 8.0, 50 µM PLP, 30 °C

Protein | Km (purified protein [1]) [µM] | kcat (purified protein [1]) [s⁻¹] | Km (purified protein [2]) [µM] | kcat (purified protein [2]) [s⁻¹] | Km (purified protein [3]; fixed aspartate (12 mM)) [µM] | kcat (purified protein [3]; fixed aspartate (12 mM)) [s⁻¹] | Km (purified protein [4]) [µM] | kcat (purified protein [4]) [s⁻¹] | Km (purified protein [3]; fixed alanine (9 mM)) [µM] | kcat (purified protein [3]; fixed alanine (9 mM)) [s⁻¹]
Asp-AT; aspartate aminotransferase 1 (recombinant) (Arabidopsis thaliana) (protein) MSSWWKSVEPAPKDPILGVTEAFLADPSPEKVNVGVGAYRDDNGKPVVLECVREAEKRLAGSTFMEYLPMGGSAKMVDLTLKLAYGDNSEFIKDKRIAAVQTLSGTGACRLFADFQKRFSPGSQIYIPVPTWSNHHNIWKDAQVPQKTYHYYHPETKGLDFSALMDDVKNAPEGSFFLLHACAHNPTGVDPTEEQWREISQLFKAKKHFAFFDMAYQGFASGDPARDAKSIRIFLEDGHHIGISQSYAKNMGLYGQRVGCLSVLCEDPKQAVAVKSQLQQLARPMYSNPPLHGAQLVSTILEDPELKSLWLKEVKVMADRIIGMRTTLRESLEKLGSPLSWEHVTKQIGMFCYSGLTPEQVDRLTSEYHIYMTRNGRISMAGVTTGNVGYLANAIHEVTKSS | 15140 ± 640 | 0.81 | 3330 ± 60 | 232.26 | 460 ± 20 | 180.60 | – | – | – | –
Ala-AT; alanine aminotransferase 1 (recombinant) (Arabidopsis thaliana) (protein) SASDSSSSLPVTLDTINPKVIKCEYAVRGEIVNIAQKLQEDLKTNKDAYPFDEIIYCNIGNPQSLGQQPITFFREVLALCSYTALLDESATHGLFSSDSIERAWKILDQIPGRATGAYSHSQGIKGLRDAIADGIEARDGFPADPNDIFMTDGASPGVHMMMQLLITSEKDGILCPIPQYPLYSASIALHGGTLVPYYLDEASGWGLEISELKKQLEDARSKGITVRALAVINPGNPTGQVLSEENQRDVVKFCKQEGLVLLADEVYQENVYVPDKKFHSFKKVARSMGYGEKDLALVSFQSVSKGYYGECGKRGGYMEVTGFTSDVREQIYKMASVNLCSNISGQILASLIMSPPKPGDDSYESYIAEKDGILSSLARRAKTLEEALNKLEGVTCNRAEGAMYLFPCLHLPQKAIAAAEAEKTAPDNFYCKRLLKATGIVVVPGSGFRQVPGTWHFRCTILPQEDKIPAIVDRLTAFHQSFMDEFRD | 770 ± 100 | 0.14 | – | – | – | – | 2510 ± 180 | 367.69 | 180 ± 10 | 262.91
